Results taken from patent publication US20230044380A1.

Target: T1, CD70 (UniProt P32970)
T1 sequence (looked up): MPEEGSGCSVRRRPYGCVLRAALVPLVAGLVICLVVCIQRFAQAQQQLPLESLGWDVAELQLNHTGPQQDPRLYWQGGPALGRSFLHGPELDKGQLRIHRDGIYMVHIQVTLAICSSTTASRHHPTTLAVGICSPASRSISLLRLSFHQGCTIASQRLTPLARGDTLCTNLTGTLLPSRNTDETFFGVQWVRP
Assay: cell-based or functional assay

percentage of CD107a positive T cells in CD8 positive T cells; CD27 CAR + LACO (A40C.28) T cells stimulated by 786-O (CD70 + + +): 27.3%
percentage of CD107a positive T cells in CD8 positive T cells; CD27 CAR + LACO (A40C.28) T cells stimulated by A498-CBG (CD70 + + +): 22.7%
percentage of CD107a positive T cells in CD8 positive T cells; CD27 CAR + LACO (A40C.28) T cells stimulated by A549-CBG (CD70 +): 3.3%
percentage of CD107a positive T cells in CD8 positive T cells; CD27 CAR + LACO (A40C.28) T cells stimulated by HS766T-CBG (CD70 +): 9.7%
percentage of CD107a positive T cells in CD8 positive T cells; CD27 CAR + LACO (A40C.28) T cells stimulated by Jeko-1-CBG (CD70 + + +): 34.4%
percentage of CD107a positive T cells in CD8 positive T cells; CD27 CAR + LACO (A40C.28) T cells stimulated by OVCAR3 (CD70 +): 6.9%
percentage of CD107a positive T cells in CD8 positive T cells; CD27 CAR + LACO (A40C.28) T cells stimulated by PC3-CBG (CD70 + +): 15.9%
percentage of CD107a positive T cells in CD8 positive T cells; CD27 CAR + LACO (A40C.28) T cells stimulated by Raji-CBG (CD70 + + +): 30.3%
percentage of CD107a positive T cells in CD8 positive T cells; CD27 CAR + LACO (A40C.28) T cells stimulated by SKOV3-CBG (CD70 +): 3.3%
percentage of CD107a positive T cells in CD8 positive T cells; CD27 CAR + LACO (A40C.28) T cells stimulated by THP1 (CD70 + +): 22.2%
percentage of CD107a positive T cells in CD8 positive T cells; CD27 CAR + LACO (A40C.28) T cells stimulated by U87-CBG (CD70 + + +): 32%
percentage of CD107a positive T cells in CD8 positive T cells; CD27 CAR + LACO (A40C.28) T cells stimulated by U937 (CD70 + +): 9%
percentage of CD107a positive T cells in CD8 positive T cells; CD27 CAR T cells stimulated by 786-O (CD70 + + +): 27.6%
percentage of CD107a positive T cells in CD8 positive T cells; CD27 CAR T cells stimulated by A498-CBG (CD70 + + +): 30.8%
percentage of CD107a positive T cells in CD8 positive T cells; CD27 CAR T cells stimulated by A549-CBG (CD70 +): 4.4%
percentage of CD107a positive T cells in CD8 positive T cells; CD27 CAR T cells stimulated by HS766T-CBG (CD70 +): 15%
percentage of CD107a positive T cells in CD8 positive T cells; CD27 CAR T cells stimulated by Jeko-1-CBG (CD70 + + +): 23.1%
percentage of CD107a positive T cells in CD8 positive T cells; CD27 CAR T cells stimulated by OVCAR3 (CD70 +): 8.8%
percentage of CD107a positive T cells in CD8 positive T cells; CD27 CAR T cells stimulated by PC3-CBG (CD70 + +): 16%
percentage of CD107a positive T cells in CD8 positive T cells; CD27 CAR T cells stimulated by Raji-CBG (CD70 + + +): 29.9%
percentage of CD107a positive T cells in CD8 positive T cells; CD27 CAR T cells stimulated by SKOV3-CBG (CD70 +): 3.2%
percentage of CD107a positive T cells in CD8 positive T cells; CD27 CAR T cells stimulated by THP1 (CD70 + +): 20.2%
percentage of CD107a positive T cells in CD8 positive T cells; CD27 CAR T cells stimulated by U87-CBG (CD70 + + +): 37.8%
percentage of CD107a positive T cells in CD8 positive T cells; CD27 CAR T cells stimulated by U937 (CD70 + +): 7.1%
B1: CD27.Z (CD70 CAR) (protein)
chain: ATPAPKSCPERHYWAQGKLCCQMCEPGTFLVKDCDQHRKAAQCDPCIPGVSFSPDHHTRPHCESCRHCNSGLLVRNCTITANAECACRNGWQCRDKECTECDPLPNPSLTARSSQALSPHPQPTHLPYVSEMLEARTAGHMQTLADFRQLPARTLSTHWPPQRSLCSSDFIRILVIFSGMFLVFTLAGALFLHQRRKYRSNKGESPVEPAEPCRYSCPREEEGSTIPIQEDYRKPEPACSPRVKFSRSADAPAYQQGQNQLYNELNLGRREEYDVLDKRRGRDPEMGGKPRRKNPQEGLYNELQKDKMAEAYSEIGMKGERRRGKGHDGLYQGLSTATKDTYDALHMQALPPR
